For assay [1], the target named is T1, murine GPC3-His protein (Sino Biological, Cat. No. 50989-M08B) (murine, UniProt Q8CFZ4 25-558).
T1 construct: Bought protein; also called murine GPC3 protein; mouse GPC3-his protein; not shown: His tag
Put plainly: ELISA, coated antigen. For orientation: An ELISA detects its analyte on a solid surface through an enzyme-linked reagent.

In assay [2] the target is T2, polypeptide GC3pep (human).
T2 construct: also called membrane proximal polypeptide GC3pep
T2 peptide: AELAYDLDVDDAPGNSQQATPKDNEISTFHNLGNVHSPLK
Kind of assay: ELISA, GC3pep coated, antibody 1 nM.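 Note: bound antibody detected with an HRP-conjugated secondary antibody and TMB substrate, reaction stopped with HCl, after 2 h binding at 37 °C.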

Assay [3] concerns the target T2, polypeptide GC3pep. Kind of assay: ELISA, GC3pep coated, antibody 10 nM.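 Note: antibody bound to the coated peptide for 2 h at 37 °C, detected through an HRP-conjugated secondary antibody with TMB colour development stopped by acid.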
Assay [4] has as its target T2, polypeptide GC3pep. Kind of assay: ELISA, GC3pep coated, antibody 0.1 nM.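 Note: antibody allowed to bind the coated plate 2 h at 37 °C, then detected via HRP-conjugated secondary antibody and TMB development for 10 min, stopped with HCl.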
The target in assay [5] is T2, polypeptide GC3pep. Put plainly: ELISA, GC3pep coated, antibody 100 nM.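 Note: detection with an HRP-conjugated secondary antibody and TMB substrate, color reaction stopped with HCl before absorbance reading.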
Assay [6] deals with T2, polypeptide GC3pep. Put plainly: ELISA, GC3pep coated, antibody 0.01 nM.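 Note: bound antibody detected with an HRP-conjugated secondary antibody and TMB substrate, color reaction stopped with HCl before reading absorbance.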
Assay [7] deals with T2, polypeptide GC3pep. Kind of assay: ELISA, GC3pep coated, antibody 0.001 nM.
Assay [8] has as its target T2, polypeptide GC3pep. Kind of assay: ELISA, GC3pep coated, antibody 0.0001 nM.

T1 sequence (Q8CFZ4 25-558 limits assumed): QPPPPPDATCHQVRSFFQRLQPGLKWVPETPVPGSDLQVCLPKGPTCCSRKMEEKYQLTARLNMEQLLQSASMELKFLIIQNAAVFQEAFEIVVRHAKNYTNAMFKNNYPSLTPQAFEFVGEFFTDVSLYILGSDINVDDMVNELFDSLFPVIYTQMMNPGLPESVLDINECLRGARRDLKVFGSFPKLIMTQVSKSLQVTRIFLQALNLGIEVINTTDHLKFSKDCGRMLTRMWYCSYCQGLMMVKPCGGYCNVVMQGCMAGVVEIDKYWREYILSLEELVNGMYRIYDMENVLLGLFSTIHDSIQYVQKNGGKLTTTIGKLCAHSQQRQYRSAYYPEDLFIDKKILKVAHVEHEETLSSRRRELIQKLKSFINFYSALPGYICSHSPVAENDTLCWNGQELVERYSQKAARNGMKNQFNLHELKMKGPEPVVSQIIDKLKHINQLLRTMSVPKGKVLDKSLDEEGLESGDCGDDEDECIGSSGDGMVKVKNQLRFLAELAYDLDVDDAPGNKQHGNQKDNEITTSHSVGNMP

B1: hAb005LH3L1b (antibody, human IgG1, V domains shown)
VH: EVQLVQSGAEVKKPGASVKVSCKASGYTFTDYEMHWVRQAPGQGLEWIGAIDPETGNTAYIQKFKGRATLTTDKSTSTAYMELRSLRSDDTAVYYCTRFYSYSHWGQGTTVTVSS
VL: DIVMTQTPLSLPVTPGEPASISCRSSQSLVHSNRNTYLHWYLQKPGQSPQLLIYKVSNRFSGVPDRFSGSGSGTDFTLKISRVEAEDVGVYYCSQNTHVPPTFGGGTKVEIK
notes: Humanized F3.54.12
With B1, the binding result in assay [1] is “no binding”.

B2: hAb007LH2L1 (antibody, human IgG1, V domains shown)
VH: EVQLVQSGAEVKKPGSSVKVSCKASGYTFTDYEMHWVRQAPGQGLEWMGTIDPETGNTAYNQKFKGRVTITADKSTSTAYMELSSLRSEDTAVYYCTRPYSLTYWGQGTLVTVSS
VL: DIVMTQTPLSLPVTPGEPASISCRSSQSFVHSNGDTYLQWYLQKPGQSPQLLIYKVSNRFSGVPDRFSGSGSGTDFTLKISRVEAEDVGVYYCFQGSHVPYTFGQGTKLEIK
notes: Humanized F3.81.19
In the case of B2, in assay [1], the binding result was “no binding”.

B3: hAb006LH1L1 (antibody, human IgG1, V domains shown)
VH: EVQLVQSGAEVKKPGSSVKVSCKASGYTFSDYEIHWVRQAPGQGLEWMGAIDPKTGNTAYNQKFMGRVTITADKSTSTAYMELSSLRSEDTAVYYCTRYFSFAYWGQGTLVTVSS
VL: DIVMTQTPLSLPVTPGEPASISCRSSQTFVHSNGNTYLQWYLQKPGQSPQLLIYKVSNRFSGVPDRFSGSGSGTDFTLKISRVEAEDVGVYYCFQGSHVPYTFGQGTKLEIK
notes: Humanized F3.38.7
B3: the binding result in assay [1] is “no binding”.

B4: hAb006LH1L1a (antibody, human IgG1, V domains shown)
VH: EVQLVQSGAEVKKPGSSVKVSCKASGYTFSDYEIHWVRQAPGQGLEWMGAIDPKTGNTAYNQKFMGRVTITADKSTSTAYMELSSLRSEDTAVYYCTRYFSFAYWGQGTLVTVSS
VL: DIVMTQTPLSLPVTPGEPASISCRSSQTFVHSDGNTYLQWYLQKPGQSPQLLIYKVSNRFSGVPDRFSGSGSGTDFTLKISRVEAEDVGVYYCFQGSHVPYTFGQGTKLEIK
notes: Humanized F3.38.7
On to B4, for which the binding result in assay [1] is “no binding”.

B5: F2.152.3 (antibody, human IgG1, kappa, V domains shown)
VH: EVQLQQSGPELVKPGASVKMSCKASGYTFTDYYMTWVKQSHGKSLEWIGRVNPRNGDTTYNQKFEGRATLTLDKSLSTAFMQLNSLTSEDSAVYYCINSKGHFDYWGQGTTLTVSS
VL: DVLMTQTPLSLPVSLGDQASISCRSSQSIVHSNGNTYLEWFLQKPGQSPKSLIYKVSNRFSGVPDRFSGSGSGTDFTLKISRVEAEDLGVYYCFQGSHVPPTFGAGTKLELKR
notes: human-murine chimeric antibody
For the molecule B5, the OD450 nm with polypeptide GC3pep [2] amounted to 2.18 OD450 nm; in the assay with polypeptide GC3pep [3], 2.43 OD450 nm; with polypeptide GC3pep [4] it was 1.53 OD450 nm; with polypeptide GC3pep [5], 2.63 OD450 nm; in the assay with polypeptide GC3pep [6], 0.35 OD450 nm; in the assay with polypeptide GC3pep [7], 0.09 OD450 nm. For the same molecule, the OD450 nm in the assay with polypeptide GC3pep [8] came out at 0.05 OD450 nm.

B6: F3.38.7 human-murine chimeric antibody (antibody, human IgG1, kappa, V domains shown)
VH: QVQLQQSGAELVRPGASVKLSCKASGYTFTDYEIHWVKQTPVLGLEWIGAIDPKTGNTAYNQKFMGKATLTADKSSTTAYMDLRSLTSEDSAVYYCTRYFSFAYWGQGTLVTVSA
VL: DVLMTQTPLSLPVSLGDQASISCRSSQTFVHSNGNTYLQWYLQKPGQSPKLLIYKVSNRFSGVPDRFSGSGSGTDFTLKISRVEAEDLGVYYCFQGSHVPYTFGSGTKLEIKR
notes: Chimeric
As for B6, in assay [1], the binding result is reported as “no binding (tested: 100 nM)”.

B7: F3.81.19 human-murine chimeric antibody (antibody, human IgG1, kappa, V domains shown)
VH: QVQLQQSGAELVRPGASVKLSCKASGYTFTDYEMHWVKQTPVHGLEWIGTIDPETGNTAYNQKFKGKATLTADKSSSTAYMELRSLTSEDSAVYYCTRPYSLTYWGQGTLVTVSA
VL: DVLLTQTPLSLPVSLGDQASISCRSSQSFVHSNGDTYLQWYLQKPGQSPKLLIYKVSNRFSGVPDRFSGSGSGTDFTLKISRVEAEDLGVYYCFQGSHVPYTFGSGTKLEIKR
notes: Chimeric
Consider B7, for which the binding result in assay [1] is on record as “no binding (tested: 100 nM)”.

B8: F3.81.19 (antibody, human IgG1, kappa, V domains shown)
VH: QVQLQQSGAELVRPGASVKLSCKASGYTFTDYEMHWVKQTPVHGLEWIGTIDPETGNTAYNQKFKGKATLTADKSSSTAYMELRSLTSEDSAVYYCTRPYSLTYWGQGTLVTVSA
VL: DVLLTQTPLSLPVSLGDQASISCRSSQSFVHSNGDTYLQWYLQKPGQSPKLLIYKVSNRFSGVPDRFSGSGSGTDFTLKISRVEAEDLGVYYCFQGSHVPYTFGSGTKLEIKR
notes: as for B5
Regarding B8, the OD450 nm with polypeptide GC3pep [2] came to 1.21 OD450 nm; with polypeptide GC3pep [3] it was 2.88 OD450 nm; with polypeptide GC3pep [4], 0.19 OD450 nm; in the assay with polypeptide GC3pep [5], 2.94 OD450 nm; with polypeptide GC3pep [6] it was 0.05 OD450 nm; with polypeptide GC3pep [7], 0.05 OD450 nm. For the same molecule, the OD450 nm in the assay with polypeptide GC3pep [8] is 0.05 OD450 nm.

B9: F3.38.7 (antibody, human IgG1, kappa, V domains shown)
VH: QVQLQQSGAELVRPGASVKLSCKASGYTFTDYEIHWVKQTPVLGLEWIGAIDPKTGNTAYNQKFMGKATLTADKSSTTAYMDLRSLTSEDSAVYYCTRYFSFAYWGQGTLVTVSA
VL: DVLMTQTPLSLPVSLGDQASISCRSSQTFVHSNGNTYLQWYLQKPGQSPKLLIYKVSNRFSGVPDRFSGSGSGTDFTLKISRVEAEDLGVYYCFQGSHVPYTFGSGTKLEIKR
notes: as for B5
As to B9, the OD450 nm in the assay with polypeptide GC3pep [2] came out at 2.57 OD450 nm; with polypeptide GC3pep [3], 2.83 OD450 nm; with polypeptide GC3pep [4] it was 1.01 OD450 nm; with polypeptide GC3pep [5], 3.22 OD450 nm; with polypeptide GC3pep [6], 0.19 OD450 nm; in the assay with polypeptide GC3pep [7] it was 0.06 OD450 nm. Further, the OD450 nm in the assay with polypeptide GC3pep [8] is 0.05 OD450 nm.

B10: F2.154.1 human-murine chimeric antibody (antibody, human IgG1, kappa, V domains shown)
VH: QVQLQQSGAELVRPGASVKLSCKASGYRFTDYEMHWVKQTPVHGLEWIGTIDPETGNTAYTQKFMDKATLTADKSSSTAYMELRSLTSEDSAVYYCTRGYSFTYWGQGTLATVSA
VL: DVLMTQTPLSLPVSLGDQASISCRSSQNIVHSNGNTYLQWYLQKPGQSPKLLIFKVSNRFSGVPDRFSGSGSGTDFTLKISRVEAEDLGVYYCFQGSHVPFTFGTGTKLEIKR
notes: Chimeric
As for B10, the binding result in assay [1] was “no binding (tested: 100 nM)”.

B11: F4.13.7 (antibody, human IgG1, kappa, V domains shown)
VH: QVQLQQPGAELVKPGASVKLSCKASGYTFTNNWVHWVKQRPGQGLEWTGMIHPDSGSTIYNEKFQSKATLTVDKSSSTAYMQLSSLTSEDSAVYYCARGYYDSSSYYAMDYWGQGTSVTVSS
VL: NIQMTQTTSSLSASLGDRVTISCSASQGIFNYLNWYQQKPDGTVKLLIYYTSSLHSGVPSRFSGSGSGTDYSLTISNLEPEDIATYYCQQYSKLPWTFGGGTKLEIKR
notes: as for B5
In the case of B11, the OD450 nm was determined as 0.03 OD450 nm with polypeptide GC3pep [2]; 0.04 OD450 nm with polypeptide GC3pep [3]; 0.03 OD450 nm with polypeptide GC3pep [4]; 0.06 OD450 nm with polypeptide GC3pep [5]; 0.04 OD450 nm with polypeptide GC3pep [6]; 0.08 OD450 nm in the assay with polypeptide GC3pep [7]. The same molecule displayed an OD450 nm in the assay with polypeptide GC3pep [8] of 0.05 OD450 nm.

B12: F3.54.12 (antibody, human IgG1, kappa, V domains shown)
VH: QVQLQQSGAELVRPGASVKLSCKASGYTFTDYEMHWVKQTPVHGLEWIGAIDPETGNTAYIQKFKGKATLTTDKSSSTAYMELRSLTSEDSAVYYCTRFYSYSHWGQGTTLTVSS
VL: DVVMTQTPLSLPVSLGDQASISCRSSQSLVHSNGNTYLHWYLQKPGQSPKLLIYKVSNRFSGVPDRFSGSSSGTDFTLKISRVEAEDLGVYFCSQNTHVPPTFGGGTKLEIKR
notes: as for B5
B12: the OD450 nm worked out at 2.64 OD450 nm in the assay with polypeptide GC3pep [2]; 2.8 OD450 nm in the assay with polypeptide GC3pep [3]; 1.63 OD450 nm with polypeptide GC3pep [4]; 3.03 OD450 nm with polypeptide GC3pep [5]; 0.33 OD450 nm with polypeptide GC3pep [6]; 0.09 OD450 nm with polypeptide GC3pep [7]. For the same molecule, the OD450 nm with polypeptide GC3pep [8] was 0.07 OD450 nm.

B13: F2.23.8 human-murine chimeric antibody (antibody, human IgG1, kappa, V domains shown)
VH: QVQLQQSGAELVRPGASVKLSCKASGYTFTDYEMHWVKQTPVHGLEWFGAIDPETGGTAYNQKFRAKATLTADKSSSTAYMELRSLTSEDSAVYYCTRFYSFAYWGQGTLVTVSA
VL: DVVMTQTPLSLPVSLGDQASISCRSSQSLVHSNGNTYLQWYLQKPGQSPKLLIYKVSNRFSGVPDRFSGSGSGTDFTLKITRVEAEDLGVYFCSQSTHVPYTFGSGTKLEIKR
notes: Chimeric
As for B13, the binding result in assay [1] is reported as “no binding (tested: 100 nM)”.

B14: F2.39.2 human-murine chimeric antibody (antibody, human IgG1, kappa, V domains shown)
VH: QVQLQQSGAELVRPGASVKVSCKASGYTFTDYEMHWMKQTPVHGLEWIGANEPETGRSAYDQKFKGKATLTADKSSSTAYMELRSLTSEDSAVYYCTRFYSFAYWGQGTLVTVSA
VL: DVVMTQTPLSLPVSLGDQASISCRSSQGLVHNNGNTYLHWYLQKPGQSPKLLIYKVSNRFSGVPDRFSGSGSGTDFTLKISRVEAEDLGVYFCSQNTHVPPTFGGGTKLEIKR
notes: Chimeric
Turning to B14, the binding result in assay [1] is given as “no binding (tested: 100 nM)”.

B15: F4.18.4 (antibody, human IgG1, kappa, V domains shown)
VH: QVQLHQSGAEMAKPGASVNLSCKTSGFTFTDYGISWVKQRTRQGLEWIGDIYPRHINIYYNEKFKDKATLTADRSSSTAYMELRSMTSEDSAVYFCARRGTTGRGALDYWGQGTSLTVSS
VL: DILLTQSPAILSVSPGERVSFSCRASQSIGTSIHWYQQRTNGSPRLLIKYAFESISGIPSRFGGSGSRTDFTLTINSVESEDIADYYCQQTYNWPYTFGGGTKLEIKR
notes: as for B5
On to B15, for which the OD450 nm with polypeptide GC3pep [2] amounted to 0.03 OD450 nm; in the assay with polypeptide GC3pep [3], 0.03 OD450 nm; in the assay with polypeptide GC3pep [4], 0.03 OD450 nm; in the assay with polypeptide GC3pep [5], 0.06 OD450 nm; with polypeptide GC3pep [6], 0.04 OD450 nm; with polypeptide GC3pep [7], 0.04 OD450 nm. In the assay with polypeptide GC3pep [8], this molecule registered an OD450 nm of 0.04 OD450 nm.

B16: F4.21.16 (antibody, human IgG1, kappa, V domains shown)
VH: DVQLQESGPGLVKPSQSLSLTCSVTGYSITSGYYWNWIRQFPGNKLEWMGYISYDVTVNYNPSLKNRISITRDTSKNQFFLKLNSVTTEDTATYYCATITSVASMDHWGQGTSVTVSS
VL: DILMTQTPLSLPVSLGDQASISCRSSQNIVHRNGNTYLEWYLQKPGQSPKLLLYKVSNRFSGVPDRFSGSGSGTDFTLKISRVEAEDLGIYYCFQGSHFPFTFGSGTKLEIKR
notes: as for B5
Turning to B16, the OD450 nm was 0.03 OD450 nm with polypeptide GC3pep [2]; 0.04 OD450 nm in the assay with polypeptide GC3pep [3]; 0.03 OD450 nm with polypeptide GC3pep [4]; 0.08 OD450 nm with polypeptide GC3pep [5]; 0.04 OD450 nm with polypeptide GC3pep [6]; 0.04 OD450 nm in the assay with polypeptide GC3pep [7]. Moreover, in the assay with polypeptide GC3pep [8], the OD450 nm came out at 0.04 OD450 nm.
